The target of this series is Ku70/80 heterodimer (Ku) (UniProt P12956;P13010 1-609;1-732). The series is described as follows: EMSA. For orientation: A gel shift assay detects complexes by their altered migration in electrophoresis.

Among the data in paper PMC7144918 are Kd values, retold here.

Ku70/80 heterodimer (Ku), sequence (P12956 whole entry, chain 1 of 2): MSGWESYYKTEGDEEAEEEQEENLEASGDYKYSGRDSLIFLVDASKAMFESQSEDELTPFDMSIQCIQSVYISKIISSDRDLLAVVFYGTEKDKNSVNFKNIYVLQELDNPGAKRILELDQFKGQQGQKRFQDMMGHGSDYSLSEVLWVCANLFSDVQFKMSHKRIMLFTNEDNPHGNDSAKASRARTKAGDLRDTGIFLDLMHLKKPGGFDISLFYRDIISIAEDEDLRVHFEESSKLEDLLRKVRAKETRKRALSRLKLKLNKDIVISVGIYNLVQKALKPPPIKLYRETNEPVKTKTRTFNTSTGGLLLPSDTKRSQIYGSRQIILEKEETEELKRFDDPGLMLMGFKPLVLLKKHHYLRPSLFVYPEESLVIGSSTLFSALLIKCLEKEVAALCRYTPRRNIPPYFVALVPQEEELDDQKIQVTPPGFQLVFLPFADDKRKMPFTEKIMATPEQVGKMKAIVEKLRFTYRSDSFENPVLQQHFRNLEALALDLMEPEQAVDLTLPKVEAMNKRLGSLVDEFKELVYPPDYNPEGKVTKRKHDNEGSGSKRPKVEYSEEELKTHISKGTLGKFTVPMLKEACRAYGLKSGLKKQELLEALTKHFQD
Ku70/80 heterodimer (Ku), sequence (P13010 whole entry, chain 2 of 2): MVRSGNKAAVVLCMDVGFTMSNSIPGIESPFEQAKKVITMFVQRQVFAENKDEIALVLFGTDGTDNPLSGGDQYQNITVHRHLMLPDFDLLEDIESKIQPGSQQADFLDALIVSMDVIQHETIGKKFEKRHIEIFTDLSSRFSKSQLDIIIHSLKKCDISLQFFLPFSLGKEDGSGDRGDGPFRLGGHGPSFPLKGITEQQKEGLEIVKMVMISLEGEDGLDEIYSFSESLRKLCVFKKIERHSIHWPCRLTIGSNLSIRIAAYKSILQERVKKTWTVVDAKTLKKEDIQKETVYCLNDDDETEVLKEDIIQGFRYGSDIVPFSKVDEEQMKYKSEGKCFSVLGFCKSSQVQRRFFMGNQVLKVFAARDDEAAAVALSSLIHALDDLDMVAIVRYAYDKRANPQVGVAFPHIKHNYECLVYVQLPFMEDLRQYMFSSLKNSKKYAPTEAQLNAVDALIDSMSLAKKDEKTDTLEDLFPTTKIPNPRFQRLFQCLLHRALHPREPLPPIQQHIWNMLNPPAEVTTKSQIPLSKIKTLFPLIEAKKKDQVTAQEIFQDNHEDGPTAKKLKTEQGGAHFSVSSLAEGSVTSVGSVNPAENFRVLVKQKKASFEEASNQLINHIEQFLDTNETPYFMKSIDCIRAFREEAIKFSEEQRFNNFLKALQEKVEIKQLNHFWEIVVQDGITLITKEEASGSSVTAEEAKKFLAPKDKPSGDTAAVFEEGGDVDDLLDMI

B1: BZ91/BZ107 25 bp duplex (dsDNA)
DNA 1: GATGCCTCCAAGGTCGACGATGCAG
DNA 2: CTGCATCGTCGACCTTGGAGGCATC
As for B1, the dissociation constant Kd (commonly a measure of binding affinity in units of concentration) came to 0.086 nM.

B2: BZ57/BZ109 25 bp Cy3 duplex (dsDNA)
DNA 1: GATGCCTCCAAGGTCGACGATGCAG
DNA 2: CTGCATCGTCGACCTTGGAGGCATC
modifications: internal Cy3 in backbone after nt 4 of each strand
With B2, the affinity, expressed as Kd, was 0.11 nM.
